In patent US7449563B2, “Methods and compositions for destabilizing microtubules” (Academia Sinica, priority 2003, dated 2008):
Entries after “also recorded” stand apart in the source; their conditions may differ.

Experiments:
[1] = target: T1, microtubule nucleation from purified centrosomes (bovine brain tubulin) (Bos taurus, UniProt P81947+Q6B856); assay: In vitro centrosome-dependent microtubule nucleation assay; type: biochemical; conditions: for Inhibition of microtubule nucleation/assembly from purified centrosomes (in words): in vitro
T1 construct: containing 125 μg bovine brain tubulin (Cytoskeleton, Denver, Colo.); purchased Cytoskeleton, Denver, Colo; host or cells: bovine brain (tissue-purified)
T1 sequence (P81947 whole entry): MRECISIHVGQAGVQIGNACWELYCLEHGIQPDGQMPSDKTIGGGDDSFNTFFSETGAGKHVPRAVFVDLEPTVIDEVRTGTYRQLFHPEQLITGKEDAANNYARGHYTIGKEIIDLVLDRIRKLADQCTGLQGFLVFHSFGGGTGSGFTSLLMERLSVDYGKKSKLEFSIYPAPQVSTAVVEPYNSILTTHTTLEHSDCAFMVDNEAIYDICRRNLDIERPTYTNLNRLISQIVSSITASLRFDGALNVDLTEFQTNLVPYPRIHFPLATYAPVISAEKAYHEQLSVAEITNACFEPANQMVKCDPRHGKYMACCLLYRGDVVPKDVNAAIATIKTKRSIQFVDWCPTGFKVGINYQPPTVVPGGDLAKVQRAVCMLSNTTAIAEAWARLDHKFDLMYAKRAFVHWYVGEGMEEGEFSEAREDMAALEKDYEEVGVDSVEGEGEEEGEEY
T1 sequence (Q6B856 whole entry): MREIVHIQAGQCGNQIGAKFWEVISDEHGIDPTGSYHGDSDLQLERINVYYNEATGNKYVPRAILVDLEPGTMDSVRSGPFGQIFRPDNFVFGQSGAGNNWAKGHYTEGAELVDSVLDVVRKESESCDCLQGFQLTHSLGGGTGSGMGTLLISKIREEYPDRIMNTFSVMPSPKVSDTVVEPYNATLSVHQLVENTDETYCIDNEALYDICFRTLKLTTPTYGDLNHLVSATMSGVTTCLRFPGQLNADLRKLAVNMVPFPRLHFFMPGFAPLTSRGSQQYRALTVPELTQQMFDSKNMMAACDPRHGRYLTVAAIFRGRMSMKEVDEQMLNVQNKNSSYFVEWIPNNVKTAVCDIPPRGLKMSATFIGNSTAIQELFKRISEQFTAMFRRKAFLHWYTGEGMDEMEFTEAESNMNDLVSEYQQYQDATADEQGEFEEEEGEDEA
Description: In vitro Centrosome-Dependant Microtubule Nucleation Assay
Isolation of centrosomes and microtubule nucleation tests were performed as described (Hung et al., 2000). To investigate the effect of different GST-truncated CPAP fusion proteins on microtubule nucleation, purified centrosomes (4 μl per reaction) were pre-incubated with the various truncated GST-CPAP fusion proteins or FPLC purified synthetic peptides for 10 min at 4° C. The reaction mixtures were then incubated in 65 μl RG1 buffer (80 mM PIPES, pH 6.8, 1 mM EGTA, 1 mM MgCl2, and 1 mM GTP) containing 125 μg bovine brain tubulin (Cytoskeleton, Denver, Colo.) for 4 min at 37° C.
Microtubules present in the reaction mixtures were fixed in 200 μl 1% glutaraldehyde in RG1 buffer, sedimented onto acid-treated coverslips, and subjected to immunofluoresence analysis using anti-α-tubulin monoclonal antibodies N356 (Amersham, Piscataway, N.J.) or FITC-conjugated anti-α-tubulin monoclonal antibodies (DM1A-FITC; Sigma, Saint Louis, Mo.). Truncated GST-CPAP proteins were detected using an anti-GST polyclonal antibody (Molecular Probes, Cincinnati, Ohio). The extent of microtubule assembly in each reaction was determined microscopically by comparing the extent of microtubule formation on each coverslip. Decreased microtubule formation in reactions comprising polypeptides derived from CPAP indicated the ability of such polypeptides to inhibit centrosome-dependent microtubule assembly.

[2] = target: T2, polymerized microtubules (bovine brain tubulin) (Bos taurus, UniProt P81947+Q6B856); assay: Microtubule depolymerization assay (centrosomes omitted); type: biochemical; conditions: centrosomes absent; nocodazole 15 μM as positive control; data not shown
T2 construct: containing 125 μg bovine brain tubulin (Cytoskeleton, Denver, Colo.); purchased Cytoskeleton, Denver, Colo; host or cells: bovine brain (tissue-purified)
T2 sequence (P81947 whole entry): as the sequence (P81947 whole entry) above
T2 sequence (Q6B856 whole entry): as the sequence (Q6B856 whole entry) above
Description: Microtubule Depolymerization Assay
In this assay, centrosomes are omitted from the above reaction mixtures to determine the effects of various truncated GST-CPAP proteins or synthetic peptides on microtubule polymerization in the absence of centrosomes. Polymerized microtubules were stained using FITC-conjugated anti-α-tubulin monoclonal antibodies, as above. Nocodazole (15 μM) was added to some reactions mixtures as a positive control for microtubule depolymerization.

| Molecule | Inhibition of microtubule nucleation/assembly from purified centrosomes (in words) [1] | Disassembly of polymerized microtubules in the absence of centrosomes (in words) [2] | Effect of synthetic peptide on centrosome-dependent microtubule nucleation (in words) ([1]; 20 μM or 40 μM peptide) |
| --- | --- | --- | --- |
| GST-CM: GST fusion polypeptide corresponding to amino acid residues 132-607 of CPAP (protein, left off: a dimerising Fc or GST, GST fusion polypeptide corresponding to amino acid residues 132-607 of CPAP) EFKEGAYKDPLFKKLEQLKEVQQKKQEQLKRQQLEQLQRLMEEQEKLLTMVSGQCTLPGLSLLPDDQSQKHRSPGNTTTGERATCCFPSYVYPDPTQEETYPSNILSHEQSNFCRTAHGDFVLTSKRASPNLFSEAQYQEAPVEKNNLKEENRNHPTGESILCWEKVTEQIQEANDKNLQKHDDSSEVANIEERPIKAAIGERKQTFEDYLEEQIQLEEQELKQKQLKEAEGPLPIKAKPKQPFLKRGEGLARFTNAKSKFQKGKESKLVTNQSTSEDQPLFKMDRQQLQRKTALKNKELCADNPILKKDSKARTKSGSVTLSQKPKMLKCSNRKSLSPSGLKIQTGKKCDGQFRDQIKFENKVTSNNKENVTECPKPCDTGCTGWNKTQGKDRLPLSTGPASRLAAKSPIRETMKESESSLDVSLQKKLETWEREKEKENLELDEFLFLEQAADEISFSSNSSFVLKILERDQQI | inhibited | disassembled |  |
| peptide M: synthetic peptide, amino acid residues 320-390 of CPAP (SEQ ID NO:1) (peptide, listed as Homo sapiens) ANIEERPIKAAIGERKQTFEDYLEEQIQLEEQELKQKQLKEAEGPLPIKAKPKQPFLKRGEGLARFTNAKS |  | disassembled | inhibited centrosome-dependent microtubule nucleation in a dose dependent manner |
| GST-PN2-3: GST fusion polypeptide corresponding to residues 311-422 of CPAP (protein, left off: a dimerising Fc or GST, GST fusion polypeptide corresponding to residues 311-422 of CPAP) QKHDDSSEVANIEERPIKAAIGERKQTFEDYLEEQIQLEEQELKQKQLKEAEGPLPIKAKPKQPFLKRGEGLARFTNAKSKFQKGKESKLVTNQSTSEDQPLFKMDRQQLQR | possessed the ability to inhibit microtubule assembly; also recorded: greatest level of inhibition | disassembled |  |
